Reference: the supplement of paper PMC9876800

Tested on: peptide library, one residue held at a place counted from the S/T acceptor
Test: relative phosphorylation of the sub-library (ratio to the mean residue at this position); higher = residue favoured
Method in brief: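 Spots on streptavidin membranes were phosphorimaged and quantified by densitometry to measure phosphorylation of biotinylated degenerate peptide sub-libraries by purified recombinant kinases, human or orthologue constructs. The reactions ran in 384-well plates for 90 min under kinase-specific conditions, with peptides at 50 μM and 50 μM ATP spiked with γ-32P-ATP. Relative sub-library phosphorylation is the ratio to the mean residue at that position.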

PDK1, construct: Full length, human, sequence (Q15118 whole entry, looked up): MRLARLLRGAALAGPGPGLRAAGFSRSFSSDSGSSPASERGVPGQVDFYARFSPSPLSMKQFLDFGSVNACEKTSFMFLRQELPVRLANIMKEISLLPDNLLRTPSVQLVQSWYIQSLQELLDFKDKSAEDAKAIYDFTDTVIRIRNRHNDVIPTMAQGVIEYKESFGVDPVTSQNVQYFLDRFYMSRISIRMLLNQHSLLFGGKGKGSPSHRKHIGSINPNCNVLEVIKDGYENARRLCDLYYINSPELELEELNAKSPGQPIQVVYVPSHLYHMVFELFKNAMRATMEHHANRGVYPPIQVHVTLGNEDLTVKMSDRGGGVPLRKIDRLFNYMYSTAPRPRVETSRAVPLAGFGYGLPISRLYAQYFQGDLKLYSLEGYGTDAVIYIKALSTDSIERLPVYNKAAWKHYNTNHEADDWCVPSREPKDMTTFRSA
PAK4, construct: aa295-end, human, sequence (O96013 295-591, looked up): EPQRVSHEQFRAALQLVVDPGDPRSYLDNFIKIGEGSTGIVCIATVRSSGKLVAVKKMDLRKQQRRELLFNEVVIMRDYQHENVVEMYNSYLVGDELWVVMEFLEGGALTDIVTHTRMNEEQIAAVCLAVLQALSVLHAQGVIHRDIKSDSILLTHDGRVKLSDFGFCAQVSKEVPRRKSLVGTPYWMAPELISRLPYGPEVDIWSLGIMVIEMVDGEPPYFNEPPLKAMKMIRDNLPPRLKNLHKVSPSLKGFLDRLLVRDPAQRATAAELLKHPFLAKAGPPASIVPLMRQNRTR
NIM1K, construct: Full length, human, sequence (Q8IY84 whole entry, looked up): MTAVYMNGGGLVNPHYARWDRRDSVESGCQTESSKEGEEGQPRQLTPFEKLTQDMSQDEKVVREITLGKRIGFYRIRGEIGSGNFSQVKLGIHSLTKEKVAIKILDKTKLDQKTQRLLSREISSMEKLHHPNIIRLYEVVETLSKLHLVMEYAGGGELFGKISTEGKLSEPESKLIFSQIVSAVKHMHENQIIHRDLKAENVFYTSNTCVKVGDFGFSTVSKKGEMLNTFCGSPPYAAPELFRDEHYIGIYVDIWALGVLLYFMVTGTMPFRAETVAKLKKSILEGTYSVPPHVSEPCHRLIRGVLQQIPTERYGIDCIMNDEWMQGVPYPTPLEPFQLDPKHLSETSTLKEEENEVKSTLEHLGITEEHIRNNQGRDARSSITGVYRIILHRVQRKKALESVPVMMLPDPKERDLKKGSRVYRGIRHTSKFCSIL
MYO3A, construct: aa1-308, human, sequence (Q8NEV4 1-308, looked up): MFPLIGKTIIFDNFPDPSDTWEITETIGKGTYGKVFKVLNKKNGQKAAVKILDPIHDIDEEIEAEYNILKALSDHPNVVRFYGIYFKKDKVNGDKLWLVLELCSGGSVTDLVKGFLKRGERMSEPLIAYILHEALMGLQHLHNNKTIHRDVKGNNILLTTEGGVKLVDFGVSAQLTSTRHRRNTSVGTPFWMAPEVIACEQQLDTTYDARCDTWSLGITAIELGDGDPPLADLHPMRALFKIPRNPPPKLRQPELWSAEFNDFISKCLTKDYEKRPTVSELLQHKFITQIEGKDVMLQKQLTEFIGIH

MYO3A, construct: aa1-308, human (from UniProt Q8NEV4)
relative phosphorylation
Conditions | at +1 | at +2 | at +3 | at +4 | at -1 | at -2 | at -3 | at -4 | at -5
A fixed | 0.412 | 0.7 | 0.734 | 0.973 | 0.971 | 0.873 | 1.07 | 0.953 | 1.14
D fixed | 0.178 | 0.35 | 0.257 | 0.506 | 1.19 | 0.602 | 0.814 | 1.22 | 1.14
E fixed | 0.151 | 0.271 | 0.229 | 0.425 | 0.697 | 0.382 | 0.772 | 1.19 | 1.08
F fixed | 0.71 | 0.638 | 0.858 | 0.517 | 0.847 | 1.45 | 0.821 | 0.951 | 0.819
G fixed | 0.559 | 0.815 | 0.815 | 1.34 | 1.81 | 0.691 | 1.05 | 1.12 | 1.12
H fixed | 0.634 | 1.3 | 1.02 | 0.986 | 1.07 | 1.59 | 1.31 | 1.26 | 1.11
I fixed | 1.65 | 0.572 | 0.801 | 0.72 | 0.345 | 0.684 | 0.789 | 0.801 | 0.823
K fixed | 1.49 | 3.03 | 2.71 | 2.63 | 1.12 | 0.754 | 1.2 | 0.982 | 1.13
L fixed | 2.17 | 0.728 | 1.08 | 0.771 | 0.976 | 0.498 | 0.683 | 0.74 | 0.629
M fixed | 2.55 | 0.933 | 0.883 | 0.67 | 1.22 | 0.941 | 0.903 | 0.807 | 0.81
N fixed | 0.61 | 0.737 | 0.835 | 0.853 | 1.29 | 1.21 | 1.16 | 1.19 | 1.06
P fixed | 0.313 | 0.857 | 0.766 | 0.981 | 0.568 | 0.633 | 0.959 | 0.899 | 1.09
Q fixed | 0.737 | 0.726 | 0.753 | 0.908 | 1.01 | 0.798 | 1.08 | 1.06 | 1.05
R fixed | 1.95 | 2.8 | 2.77 | 2.32 | 1.26 | 1.2 | 1.16 | 0.835 | 1.18
V fixed | 0.882 | 0.688 | 0.775 | 0.752 | 0.523 | 0.579 | 0.759 | 0.89 | 0.927
W fixed | 1.01 | 0.908 | 0.756 | 1.01 | 0.886 | 1.49 | 1.26 | 1.11 | 0.83
Y fixed | 0.985 | 0.947 | 0.956 | 0.643 | 1.21 | 2.62 | 1.21 | 0.993 | 1.08
pThr fixed | 0.523 | 0.418 | 0.71 | 0.348 | 0.573 | 0.699 | 0.939 | 1.19 | 1.06
pTyr fixed | 0.325 | 0.301 | 0.649 | 0.403 | 1.65 | 0.771 | 0.993 | 1.24 | 1.24

NIM1K, construct: Full length, human (from UniProt Q8IY84)
relative phosphorylation
Conditions | at +1 | at +2 | at +3 | at +4 | at -1 | at -2 | at -3 | at -4 | at -5
A fixed | 1.02 | 1.1 | 0.686 | 0.823 | 1.14 | 1.35 | 0.839 | 1.14 | 1.43
D fixed | 0.328 | 0.286 | 1.08 | 0.716 | 0.362 | 0.331 | 0.475 | 0.831 | 0.765
E fixed | 0.455 | 0.311 | 0.495 | 0.844 | 0.331 | 0.307 | 0.502 | 0.762 | 0.602
F fixed | 1.17 | 1.55 | 1.46 | 0.97 | 0.571 | 1.7 | 0.769 | 0.709 | 0.63
G fixed | 0.75 | 0.407 | 0.548 | 0.799 | 3.74 | 1.27 | 0.883 | 1.33 | 1.12
H fixed | 0.924 | 0.848 | 1.15 | 0.801 | 0.966 | 1.15 | 1.06 | 1.06 | 1.26
I fixed | 0.801 | 1.32 | 0.626 | 1.37 | 0.503 | 0.705 | 0.681 | 0.749 | 0.778
K fixed | 0.686 | 0.545 | 0.552 | 1.12 | 1.37 | 1.03 | 1.21 | 1.57 | 1.73
L fixed | 0.975 | 1.52 | 1.15 | 1.98 | 0.818 | 0.932 | 0.84 | 0.958 | 0.869
M fixed | 1.83 | 1.3 | 0.82 | 1.31 | 0.926 | 0.997 | 0.966 | 0.956 | 0.781
N fixed | 0.722 | 0.496 | 1.12 | 0.697 | 0.842 | 1.06 | 0.797 | 1.25 | 1.2
P fixed | 0.376 | 0.51 | 0.404 | 0.722 | 0.76 | 0.361 | 0.823 | 0.87 | 0.852
Q fixed | 2.16 | 0.607 | 0.549 | 0.795 | 1.05 | 0.737 | 0.887 | 0.935 | 0.868
R fixed | 1.05 | 0.633 | 0.666 | 1.24 | 1.44 | 1.38 | 3.47 | 1.41 | 1.41
V fixed | 1.2 | 1.48 | 0.645 | 1.42 | 0.693 | 0.888 | 0.872 | 0.712 | 0.917
W fixed | 1.16 | 2.06 | 3.85 | 0.717 | 0.709 | 1.7 | 0.97 | 0.863 | 1.04
Y fixed | 1.39 | 2.04 | 1.19 | 0.686 | 0.775 | 1.1 | 0.957 | 0.884 | 0.758
pThr fixed | 0.564 | 0.357 | 0.387 | 0.81 | 0.341 | 0.522 | 0.655 | 0.711 | 0.72
pTyr fixed | 0.365 | 0.345 | 0.367 | 0.644 | 0.459 | 0.475 | 0.619 | 0.629 | 0.543

PAK4, construct: aa295-end, human (from UniProt O96013)
relative phosphorylation
Conditions | at +1 | at +2 | at +3 | at +4 | at -1 | at -2 | at -3 | at -4 | at -5
A fixed | 0.553 | 4.9 | 0.88 | 0.922 | 0.732 | 0.279 | 0.735 | 1.12 | 1.3
D fixed | 0.199 | 0.382 | 0.663 | 0.928 | 0.373 | 0.145 | 0.295 | 0.611 | 0.77
E fixed | 0.194 | 0.23 | 0.814 | 0.754 | 0.273 | 0.136 | 0.265 | 0.603 | 0.58
F fixed | 1.3 | 0.849 | 1.81 | 0.823 | 1.06 | 0.445 | 0.54 | 0.844 | 0.852
G fixed | 0.327 | 0.715 | 0.996 | 1.13 | 0.534 | 0.244 | 0.739 | 1.35 | 1.29
H fixed | 0.9 | 0.663 | 1.12 | 1.23 | 1.34 | 0.76 | 0.801 | 1.17 | 1.09
I fixed | 1.79 | 1.14 | 1.36 | 0.8 | 0.563 | 0.284 | 0.415 | 0.655 | 0.727
K fixed | 0.621 | 0.267 | 0.544 | 0.817 | 1.45 | 0.725 | 3.15 | 1.51 | 1.53
L fixed | 1.38 | 0.673 | 1.35 | 0.788 | 1.18 | 0.244 | 0.49 | 0.74 | 0.71
M fixed | 1.96 | 0.588 | 1.1 | 0.877 | 1.38 | 0.334 | 0.599 | 0.913 | 0.714
N fixed | 0.366 | 0.542 | 0.542 | 0.91 | 0.967 | 0.287 | 0.77 | 0.873 | 1
P fixed | 0.215 | 0.667 | 0.797 | 2.16 | 0.251 | 0.634 | 0.684 | 0.868 | 1.03
Q fixed | 0.694 | 0.433 | 0.682 | 1.02 | 1.06 | 0.641 | 0.96 | 0.902 | 0.897
R fixed | 0.964 | 0.297 | 0.615 | 0.983 | 2.76 | 10 | 4.61 | 1.98 | 1.81
V fixed | 1.47 | 2.1 | 1.07 | 0.761 | 0.579 | 0.282 | 0.413 | 0.66 | 0.75
W fixed | 2.49 | 0.806 | 1.45 | 1.21 | 1.19 | 0.417 | 0.876 | 1.27 | 0.987
Y fixed | 1.57 | 1.75 | 1.2 | 0.894 | 1.3 | 1.1 | 0.651 | 0.941 | 0.961
pThr fixed | 0.339 | 0.403 | 0.705 | 1.45 | 0.233 | 0.218 | 0.398 | 0.688 | 0.662
pTyr fixed | 0.514 | 0.767 | 1.34 | 1.19 | 0.261 | 0.232 | 0.402 | 0.579 | 0.65

PDK1, construct: Full length, human (from UniProt Q15118)
relative phosphorylation
Conditions | at +1 | at +2 | at +3 | at +4 | at -1 | at -2 | at -3 | at -4 | at -5
A fixed | 0.64 | 0.794 | 0.777 | 0.904 | 1.25 | 0.94 | 0.972 | 0.989 | 0.951
D fixed | 0.63 | 1.03 | 1.5 | 1.01 | 1.58 | 0.752 | 0.799 | 0.88 | 0.943
E fixed | 0.568 | 0.888 | 1.1 | 0.856 | 0.681 | 0.7 | 0.677 | 0.818 | 0.881
F fixed | 1.18 | 1.15 | 1.64 | 1.17 | 1.04 | 1.26 | 1.28 | 1.18 | 1.24
G fixed | 0.641 | 1.71 | 1.08 | 1.05 | 1.11 | 1.42 | 0.928 | 1.14 | 1.12
H fixed | 0.804 | 1.09 | 0.87 | 1.06 | 1.25 | 1.26 | 1.08 | 0.957 | 1.1
I fixed | 2.06 | 0.767 | 0.932 | 1 | 0.793 | 0.852 | 1.1 | 0.962 | 0.945
K fixed | 0.624 | 0.808 | 0.622 | 0.794 | 0.655 | 0.704 | 0.77 | 0.832 | 0.824
L fixed | 2.3 | 0.889 | 0.883 | 0.884 | 0.924 | 1.02 | 1.07 | 0.982 | 1.05
M fixed | 1.34 | 0.989 | 1.02 | 1 | 0.976 | 1.08 | 1.12 | 1.19 | 1.1
N fixed | 0.625 | 0.935 | 0.809 | 1.02 | 1.29 | 0.787 | 0.867 | 0.878 | 0.981
P fixed | 0.607 | 0.902 | 1.1 | 1.08 | 0.864 | 0.799 | 0.912 | 1.02 | 0.722
Q fixed | 0.727 | 1.04 | 0.803 | 0.884 | 0.801 | 0.869 | 0.852 | 0.883 | 0.679
R fixed | 0.728 | 1.11 | 0.897 | 0.967 | 0.751 | 0.986 | 0.851 | 0.988 | 0.95
V fixed | 1.28 | 0.813 | 0.948 | 0.926 | 0.823 | 0.83 | 0.94 | 0.831 | 0.917
W fixed | 1.25 | 1.08 | 1.03 | 1.38 | 1.21 | 1.73 | 1.78 | 1.47 | 1.6
Y fixed | 1.18 | 1.15 | 1.64 | 1.17 | 1.04 | 1.26 | 1.28 | 1.18 | 1.24
pThr fixed | 0.538 | 0.662 | 0.863 | 0.876 | 0.572 | 0.524 | 0.666 | 0.846 | 0.933
pTyr fixed | 0.723 | 0.951 | 0.689 | 0.919 | 0.694 | 0.892 | 0.885 | 1.2 | 1.05
